According to the supplement of paper PMC10126150:
± gives the standard deviation of the averaged measurements.

System: ATP
Test: switch fluorescence ratio, 500 uM ATP over buffer (Cy3 cluster intensity, sum of 5 cycles each) (fold (ratio)); higher = stronger signal-on switching upon ATP binding; sequences stand for … in TCGTCGGCAGCGTCAGATGTGTATAAGAGACAGTTTTTTTTTTTTTTTTTTTTTTTTT…TC
Conditions: aptamer strand: ATP DNA aptamer (quencher-CACCTGGGGGAGTATTGCGGAGGAAGG + anchor), 100 nM annealed; ATP concentration: 500 uM
Method in brief: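 The quencher-labelled ATP aptamer, at 100 nM, was annealed to Cy3-labelled switching-strand clusters on a modified Illumina MiSeq flow-cell. The clusters were imaged in selection buffer, then after 15 min with 500 uM ATP at 22 °C, and this buffer/ATP cycle ran five times with NaOH stripping and re-annealing between runs. Per-cluster fluorescence ratios, summed target-cycle over summed buffer-cycle Cy3 intensity, were averaged per switch-domain sequence. Clusters outside 100-1000 RFU were excluded.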
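Note: ATP exposure 15 min at 22 °C before imaging.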

Sequence | switch fluorescence ratio
GGAGGGACTG | 1.06 ± 0.17
GGAGGGAGGT | 1.01 ± 0.012
GGAGGGAGTG | 0.98 ± 0.025
GGAGGGCGTG | 0.988 ± 0.021
GGAGGGGCAC | 0.979 ± 0.036
GGAGGGGGAT | 1.03 ± 0.043
GGAGGGGGCG | 0.999 ± 0.061
GGAGGGGGGT | 1.01 ± 0.023
GGAGGGGGTT | 1.01 ± 0.051
GGAGGGGTTG | 1.04 ± 0.015
GGAGGGTGGT | 0.9906 ± 0.0019
GGAGGTGGGT | 1.01 ± 0.03
GGAGGTTGGC | 1.02 ± 0.07
GGAGGTTTGG | 0.992 ± 0.044
GGAGTAATTT | 1.07 ± 0.016
GGAGTAGACT | 1.02 ± 0.02
GGAGTAGCTA | 1.03 ± 0.04
GGAGTAGGGA | 1.02 ± 0.031
GGAGTGTTTC | 1.01 ± 0.016
GGAGTTAGGA | 0.9866 ± 0.0098
GGAGTTAGTC | 1.01 ± 0.021
GGAGTTATAA | 1.05 ± 0.034
GGAGTTTAAG | 0.996 ± 0.039
GGAGTTTCGG | 1 ± 0.031
GGATAACGTA | 1.01 ± 0.049
GGATAGCCGA | 0.99 ± 0.086

Sequence | switch fluorescence ratio
GGATAGCTCG | 0.987 ± 0.041
GGATAGGATG | 0.974 ± 0.022
GGATAGTGGT | 1.01 ± 0.0079
GGATATACGT | 1.01 ± 0.017
GGATATATTG | 1.02 ± 0.024
GGATATCGAG | 0.9982 ± 0.0069
GGATATCGTT | 1.032 ± 0.0059
GGATATGGCA | 1.01 ± 0.037
GGATATGGTT | 0.987 ± 0.034
GGATATGTTG | 0.994 ± 0.019
GGATATTTTT | 1.01 ± 0.016
GGATCACTTA | 1.02 ± 0.023
GGATCATGTG | 1.004 ± 0.0049
GGATCCGAGC | 1.03 ± 0.033
GGATCGAGAC | 0.9755 ± 0.0034
GGATCTTAAG | 0.991 ± 0.035
GGATGACCTA | 0.976 ± 0.021
GGATGACGTC | 1.035 ± 0.0091
GGATGACTGG | 0.9993 ± 0.0061
GGATGAGGGA | 0.957 ± 0.029
GGATGAGTGC | 0.99 ± 0.023
GGATGATCGT | 0.954 ± 0.029
GGATGATGGG | 1.01 ± 0.046
GGATGCATTG | 0.972 ± 0.011
GGATGCTAGG | 1.01 ± 0.048
GGATGGACTG | 0.937 ± 0.035

Sequence | switch fluorescence ratio
GGATGGGGTC | 0.975 ± 0.02
GGATGGTTCG | 0.972 ± 0.023
GGATGGTTGC | 1.03 ± 0.021
GGATGTCCAG | 0.947 ± 0.028
GGATGTGCTG | 1.04 ± 0.049
GGATGTTATT | 0.9915 ± 0.0094
GGATGTTCGT | 0.9911 ± 0.0083
GGATTAGGGC | 1.02 ± 0.041
GGATTAGTGA | 0.964 ± 0.036
GGATTCAAAG | 0.993 ± 0.015
GGATTCTAGG | 0.969 ± 0.02
GGATTCTGGG | 0.963 ± 0.042
GGATTCTGTG | 0.969 ± 0.018
GGATTGAATG | 0.972 ± 0.025
GGATTGGATG | 0.983 ± 0.046
GGATTGGGCA | 1.01 ± 0.021
GGATTGGTAA | 0.9919 ± 0.00028
GGATTGTGAG | 0.987 ± 0.042
GGATTTACGT | 1.02 ± 0.023
GGATTTCGTG | 0.986 ± 0.024
GGATTTGAGT | 0.976 ± 0.015
GGATTTGCCA | 0.989 ± 0.038
GGATTTGGGT | 0.981 ± 0.017
GGATTTTGGG | 1.01 ± 0.028
GGATTTTTGT | 0.997 ± 0.022
GGATTTTTTT | 1 ± 0.032

Sequence | switch fluorescence ratio
GGCAACGGGG | 1.01 ± 0.036
GGCAATTAGG | 1.04 ± 0.048
GGCAATTCTC | 3.9 ± 0.31
GGCAATTGGA | 1.01 ± 0.011
GGCACATTTT | 1.01 ± 0.022
GGCACCTTAT | 1.06 ± 0.034
GGCACTAGAC | 1.09 ± 0.11
GGCAGAAAAT | 1.01 ± 0.032
GGCAGAAAGT | 1.014 ± 0.0027
GGCAGACGGT | 1.006 ± 0.0016
GGCAGAGATG | 1.02 ± 0.046
GGCAGGATAT | 1.016 ± 0.0056
GGCATATGTT | 1 ± 0.021
GGCATCGAAG | 1 ± 0.027
GGCATCTAAG | 0.997 ± 0.019
GGCATCTGGG | 1.026 ± 0.0011
GGCATTATAA | 0.99 ± 0.025
GGCATTCGTG | 0.9743 ± 0.0049
GGCATTGAGG | 0.988 ± 0.04
GGCCAAAGGG | 0.9965 ± 0.0036
GGCCAAATCC | 1.006 ± 0.0056
GGCCAAGGGA | 1.016 ± 0.0069
GGCCAGGAGA | 1.04 ± 0.021
GGCCATTGTG | 0.982 ± 0.023
GGCCCCATGC | 1.24 ± 0.034
GGCCCGGGGA | 1.02 ± 0.042

Sequence | switch fluorescence ratio
GGCCGAGAGG | 0.993 ± 0.053
GGCCGAGGGG | 1.01 ± 0.03
GGCCGATCAT | 1.02 ± 0.04
GGCCGGATAG | 1.03 ± 0.021
GGCCGGTGAA | 0.9843 ± 0.0045
GGCCGGTTGC | 1.03 ± 0.071
GGCCGTTTGA | 1.02 ± 0.048
GGCCTACCGC | 1.13 ± 0.036
GGCCTATAAC | 1 ± 0.021
GGCCTGGACG | 1.05 ± 0.015
GGCCTGGGGT | 0.996 ± 0.029
GGCCTTTTAA | 1.04 ± 0.029
GGCGAAGGAG | 0.999 ± 0.011
GGCGAGACGC | 0.981 ± 0.031
GGCGCAAAGC | 1.487 ± 0.013
GGCGCAAGCT | 1.02 ± 0.025
GGCGCAGCTG | 0.96511 ± 0.0006
GGCGCATGGA | 0.991 ± 0.023
GGCGCCGGCT | 0.992 ± 0.079
GGCGCGTTAG | 1.02 ± 0.06
GGCGCTTATT | 0.963 ± 0.014
GGCGCTTGTT | 0.975 ± 0.034
GGCGGAAGTC | 1.01 ± 0.013
GGCGGAGCTA | 1.03 ± 0.049
GGCGGATATA | 0.9553 ± 0.0058
GGCGGATATT | 0.9975 ± 0.0069

Sequence | switch fluorescence ratio
GGCGGCCGGA | 1.002 ± 0.0084
GGCGGCGGGG | 1.03 ± 0.049
GGCGGCTTGG | 1.005 ± 0.0031
GGCGGGAATT | 0.972 ± 0.031
GGCGGGACGG | 1.01 ± 0.033
GGCGGGGACC | 0.982 ± 0.025
GGCGGGGGAG | 1.03 ± 0.021
GGCGGGGGCC | 0.969 ± 0.016
GGCGGGGTCG | 1.01 ± 0.038
GGCGGGGTGC | 1.016 ± 0.0073
GGCGGGTTGG | 0.998 ± 0.048
GGCGTAAAAG | 1.01 ± 0.038
GGCGTAAGCT | 1.012 ± 0.0095
GGCGTAAGGG | 1.01 ± 0.019
GGCGTAGTCA | 0.9855 ± 0.0022
GGCGTAGTGC | 1.02 ± 0.016
GGCGTCCTGG | 1.03 ± 0.029
GGCGTCCTTT | 0.994 ± 0.031
GGCGTGGGGA | 1.02 ± 0.017
GGCGTGTGCG | 0.98 ± 0.039
GGCGTTCGCT | 0.984 ± 0.026
GGCGTTTGTC | 1.03 ± 0.032
GGCGTTTTTG | 1.02 ± 0.046
